Laboratory results from article PMC5924515.

What was measured:
[1] = molecular target: T1, VapB15 (Synechocystis sp. PCC 6803) (UniProt P74009); assay: EMSA; details: 100 mM Tris-HCl pH 8.0, 100 mM NaCl, 1 mM DTT, 10% glycerol, 0.1 mg/mL sonicated salmon sperm DNA, 25 C, 30 min; 5% native PAGE in 0.5x TBE
T1 sequence: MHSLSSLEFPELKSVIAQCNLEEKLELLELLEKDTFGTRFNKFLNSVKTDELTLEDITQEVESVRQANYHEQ

[2] = molecular target: T2, VapB15;VapC15-His6 (Synechocystis sp. PCC 6803;Synechocystis sp. PCC 6803) (UniProt P74009+P74010); assay: EMSA
T2 sequence 1: T1 sequence
T2 sequence 2: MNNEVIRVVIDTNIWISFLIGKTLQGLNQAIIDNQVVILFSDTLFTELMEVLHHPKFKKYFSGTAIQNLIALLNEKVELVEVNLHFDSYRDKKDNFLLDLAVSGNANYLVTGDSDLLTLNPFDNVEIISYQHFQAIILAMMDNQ

Sequence	binding [1]	binding [2]
GAAATTCCAGTGATGACAATGAGTGCATTTCAACTTTTCTCCGAGAGGCGAATTATAACTCCCATTATCACATTTCCAAATAGTGCCCCAAGGAGTTGCTTGAAAAGTCCCC (double strand) [P2 (3' half of PS1 and whole PS2)]	no binding	
CAAAGCTCTGGCAACCCTGCAGAACTTTAAACCTATCCCCCTAGGCTTGGGGCCAGGGGACTTTTCAAGCAACTCCTTGGGGCACTATTTGGAAATGTGATAATGGGAGTTATAATTCGCCTCTCGGAGAAAAGTTGAAATGCACTCATTGTCATCACTGGAATTTC (double strand) [P1 (PvapBC15 promoter, PS1 and PS2)]	binds	binds more weakly
